{
  "source": "paper PMC4900533",
  "key": {"[1]": {"test": "immunoblot of PNGase F-treated MDCKII lysates, densitometry", "conditions": "glycan lost; control: wild type"}, "[2]": {"test": "confocal microscopy, apical marker gp135, MDCKII", "conditions": "glycan lost; control: wild type"}},
  "data": [
    {"protein": "ABCG2: Q596 (protein) parent chain: MSSSNVEVFIPVSQGNTNGFPATASNDLKAFTEGAVLSFHNICYRVKLKSGFLPCRKPVEKEILSNINGIMKPGLNAILGPTGGGKSSLLDVLAARKDPSGLSGDVLINGAPRPANFKCNSGYVVQDDVVMGTLTVRENLQFSAALRLATTMTNHEKNERINRVIQELGLDKVADSKVGTQFIRGVSGGERKRTSIGMELITDPSILFLDEPTTGLDSSTANAVLLLLKRMSKQGRTIIFSIHQPRYSIFKLFDSLTLLASGRLMFHGPAQEALGYFESAGYHCEAYNNPADFFLDIINGDSTAVALNREEDFKATEIIEPSKQDKPLIEKLAEIYVNSSFYKETKAELHQLSGGEKKKKITVFKEISYTTSFCHQLRWVSKRSFKNLLGNPQASIAQIIVTVVLGLVIGAIYFGLKNDSTGIQNRAGVLFFLTTNQCFSSVSAVELFVVEKKLFIHEYISGYYRVSSYFLGKLLSDLLPMRMLPSIIFTCIVYFMLGLKPKADAFFVMMFTLMMVAYSASSMALAIAAGQSVVSVATLLMTICFVFMMIFSGLLVNLTTIASWLSWLQYFSIPRYGFTALQHNEFLGQNFCPGLNATGNNPCNYATCTGEEYLVKQGIDLSPWGLWKNHVALACMIVIFLTIAYLKLLFLKKYS", "values": [
      {"measurement": "expression_or_secretion", "setting": "[1]", "result": "decreases"},
      {"measurement": "localisation_or_trafficking", "setting": "[2]", "result": "no change"}
    ]}
  ]
}
